Where a chain is given by its changes, count along the chain named.
T1: Recombinant human TIGIT (human, UniProt Q495A1 22-141, limits assumed)
T1 construct: also called T cell immunoreceptor with Ig and ITIM domains
T1 sequence: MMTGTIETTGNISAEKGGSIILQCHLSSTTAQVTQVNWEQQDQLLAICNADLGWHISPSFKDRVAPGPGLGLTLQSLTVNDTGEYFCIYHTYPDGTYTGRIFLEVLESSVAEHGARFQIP

T2: TIGIT on the engineered cell lines of the TIGIT/CD155 Blockade Bioassay (J2201, Promega) (UniProt Q495A1 22-244, limits assumed)
T2 sequence (looked up): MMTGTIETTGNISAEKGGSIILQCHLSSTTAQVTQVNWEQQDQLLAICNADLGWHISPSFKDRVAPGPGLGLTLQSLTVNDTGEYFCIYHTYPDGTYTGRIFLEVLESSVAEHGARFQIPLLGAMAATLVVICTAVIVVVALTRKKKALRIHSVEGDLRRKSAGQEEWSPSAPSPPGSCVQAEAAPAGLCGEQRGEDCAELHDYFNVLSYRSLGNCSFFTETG

B1: SCT-Ga255 (antibody, V domains shown)
VH: EVKLVESGGGLVKPGGSLKLSCAASGFAFSSFDMSWVRQTPEKRLEWVAVISSGGSYTFYPDSVKGRFTISRDNARNTLYLQMSSLRSEDTALYFCTRQDYRYPYIMDYWGQGTSVTVSS
VL: DIQMNQSPSSLSASLGDTITITCHASQNINVWLSWYQQKPGNIPKLLIYKASNLHTGVPSRFSGSGSGAGFTLTISSLQPEDIATYYCQQGQSYPWTFGGGTKLEIK
notes: Murine variable domains
B2: SCT-Ga495 (antibody, V domains shown)
VH: B1 VH with K13Q, K19R, T40A, E42G, R44G, A75S, R76K, S84N, S88A, S115L
VL: AIQMTQSPSSLSASVGDRVTITCQASQNINVWLSWYQQKPGKAPKLLIYKASTLASGVPSRFSGSGSGTDFTLTISSLQPDDFATYYCQQGQSYPWTFGGGTKVEIK
B3: SCT-Ga433 (antibody, V domains shown)
VH: DVKLVESGGGLVKPGGSLKLSCSASGFTFSSYTMSWVRQTPEKRLEWVATISSGGSYTYYPDSVKGRFTISRDNAKNTLYLQMSSLKSEDTAMFYCTRWLLSLYAMDYWGQGTSVTVSS
VL: B1 VL with P44S, L54F, A69T, G70N, S93T, W96F
notes: Murine variable domains
B4: SCT-Ga496 (antibody, V domains shown)
VH: B1 VH with K13Q, K19R, T40A, E42G, R44G, A75S, R76K, S84N, S88A, S115L
VL: B2 VL with A1D, Q24H
B5: SCT-Ga461 (antibody, V domains shown)
VH: EVQLVESGGGLVQPGGSLRLSCAASGFTFSSYTMSWVRQAPGKGLEWVATISSGGSYTYYPDSVKGRFTISRDNAKNTLYLQMNSLRAEDTAVYYCTRWLLSLYAMDYWGQGTLVTVSS
VL: B2 VL with S93T, W96F
B6: SCT-Ga249 (antibody, V domains shown)
VH: QVQLQQSGGELMKPGASVKISCKATGYTFSNYWIEWVKQRPGHGLEWIGEILPGSGSSYYNEKFKGRATFTADKSSNTAYMQLSSLTSEDSAVYYCARQKYGNFYYFDFWGQGTTLTVSS
VL: AIQMTQTTSSLSASLGDRVTISCSASQGIGNYLNWYQQKPDGTVKLLIYYTSSLHSGVPSRFSGSGSGTDYSLTISDLEPEDIATYYCHQYSKLPYTFGGGTKLEIK
notes: Murine variable domains
B7: SCT-Ga001 (antibody, V domains shown)
VH: QVQLQQSGAELVRPGTSVKVSCKASGYAFTNYLIEWVKQRPGQGLEWIGVINPGSGGSKYNEKFKGKTTLTADKSSSTAYMQLSSLTSEDSAVYFCARTGVYGNFLIFDYWGQGTTLTVSS
VL: DIVLTQSPSSLSVAAGEKVTLSCKSSQSLLNSGIQKNYLAWYQQKPGQPPKLLIYGASTRESGVPDRFTGSGSGTDFTLTISSVQAEDLAVYYCQNDHRYPFTFGGGTKLEIK
notes: Murine variable domains
B8: SCT-Ga485 (antibody, V domains shown)
VH: QVQLVQSGAEVKKPGASVKVSCKASGYAFTNYLIEWVKQAPGQGLEWIGVINPGSGGSKYNEKFKGRATITADKSTSTAYMELSSLRSEDTAVYFCARTGVYGNFLIFDYWGQGTTVTVSS
VL: DIVMTQSPDSLAVSLGERATINCKSSQSLLNSGIQKNYLAWYQQKPGQPPKLLIYGASTRESGVPDRFSGSGSGTDFTLTISSLQAEDVAVYYCQNDHRYPFTFGGGTKLEIK
B9: SCT-Ga333 (antibody, V domains shown)
VH: QVQLQQSGAELVRPGTSVKVSCKASGYAFTNYLIEWVKQRPGQGLEWIGVINPGSGGNNYNEKFKGKATLTADKSSSTAYMQLSSLTSDDSAVYFCARRGDKYGSAWFAYWGQGTLVTVSA
VL: DIVMTQSHKFMSTSVGDRVSITCKASQDVSTAVAWYQQKPGQSPKLLIYSASYRYTGVPDRFTGSGSGTDFTFTISSVQAEDLAVYYCQQHYSSPRTFGGGTKLEIK
notes: Murine variable domains
B10: SCT-Ga498 (antibody, V domains shown)
VH: QVQLQQSGAEVKKPGASVKVSCKASGYAFTNYLIEWVKQAPGQGLEWIGVINPGSGGNNYNEKFKGRATITADKSTSTAYMELSSLRSEDTAVYFCARRGDKYGSAWFAYWGQGTTVTVSA
VL: B9 VL with H8Q, K9R, S14T, F73L, S77N, V78M, A80S
B11: SCT-Ga487 (antibody, V domains shown)
VH: QVQLQQPGAELVKPGASVKMSCKATGYTFSNYWIEWVKQTPGRGLEWIGEILPGSGSSYYNQKFKGKATLTADKSSSTAYMQLSSLTSEDSAVYYCARQKYGNFYYFDFWGAGTTVTVSA
VL: AIQMTQSPSSLSASVGDRVTITCRASQGIGNYLNWYQQKPGKAPKLLIYYTSSLHSGVPSRFSGSGSGTDYTFTISSLQPEDIATYYCHQYSKLPYTFGQGTKVEIK

molecular target: T1, Recombinant human TIGIT; experiment: ELISA, recombinant human TIGIT coated on plate, serially diluted antibody
Method: The recombinantly expressed antibodies were used to assess binding activity to TIGIT by conventional ELISA according to the known art. Recombinant human TIGIT was coated onto ELISA plates to detect binding at serially diluted concentrations of the anti-TIGIT antibody preparations (FIG. 1). Anti-TIGIT antibodies' blockade activity was assessed using engineered cell lines, kit reagents (TIGIT/CD155 Blockade Bioassay, J2201, Promega, Madison, Wis.), and a luminometer (Promega, Madison, Wis.) and the results were used to compare against benchmark antibodies with known blockade activity (FIG. 2). Similarly, these antibodies were assessed for their ability to synergize with an anti-PD-1 antibody using a PD-1+TIGIT combination bioassay (Cat. No. J2211 Promega, Madison, Wis.).

| EC50 | Molecule |
| --- | --- |
| 0.96 nM | B1 |
| 0.69 nM | B2 |
| 1.1 nM | B3 |
| 0.67 nM | B4 |
| 4.55 nM | B5 |
| 1.22 nM | B6 |
| 5.03 nM | B7 |
| 0.79 nM | B8 |
| 1.08 nM | B9 |
| 0.82 nM | B10 |
| 1.96 nM | B11 |

molecular target: T2, TIGIT on the engineered cell lines of …; experiment: cell-based or functional assay

| Blockade EC50 | Molecule |
| --- | --- |
| 33.4 nM | B1 |
| 25.2 nM | B3 |
| 28.1 nM | B6 |
| 26.6 nM | B7 |
| 42.2 nM | B9 |

molecular target: TIGIT on the engineered cell lines of the TIGIT/CD155 Blockade Bioassay (J2201, Promega) (UniProt Q495A1); experiment: cell-based or functional assay

| Blockade EC50 | Molecule |
| --- | --- |
| 24.8 nM | MK-7684 (antibody) |

Source: US20220332816A1 (SINGLE CELL TECHNOLOGY, published 2022)
